The results in this text go back to PMC12747262 (bioRxiv, 2025).

What all share (experiment): BLI
The target of experiment [1] is PI4KA-TTC7A-FAM126A (1–308) complex (UniProt P42356;Q9ULT0;Q9BYI3).
The target of experiment [2] is TTC7B-FAM126A (1–308) heterodimer (UniProt Q86TV6;Q9BYI3).
The target in experiment [3] is TTC7B-FAM126B (1–308) heterodimer (UniProt Q86TV6;Q8IXS8).
Experiment [4] has as its target TTC7A-FAM126A (1–308) heterodimer (UniProt Q9ULT0;Q9BYI3).
In experiment [5] the target is TTC7A-FAM126B (1–308) heterodimer (UniProt Q9ULT0;Q8IXS8).
Experiment [6] has as its target PI4KA-TTC7B-FAM126A (1–308) complex (UniProt P42356;Q86TV6;Q9BYI3).

B1: His-tagged MBP-EFR3A (721–791) (domain or fragment)
chain: SNTEEITFEALKKAIDTSGMEEQEKEKRRLVIEKFQKAPFEEIAAQCESKANLLHDRLAQILELTIRPPPS
B1: the Kd in experiment [1] was 340 ± 130 pM; in experiment [2] it was 41 ± 25 pM; in experiment [3], ~300 pM; in experiment [4], ~300 pM; in experiment [5] it was ~300 pM; in experiment [6] it was 43 ± 14 pM.
